The values below come from patent US20240059797A1 (GRITSTONE BIO, published 2024).

The target of experiment [1] is HLA-A*02:01_… (HLA-PEPTIDE target G7), recombinant biotinylated complex (human, enzymatically biotinylated (BirA)). The experiment is described as follows: phage panning, scFv ELISA. Background: In an ELISA, binding on a coated surface is turned into a signal by an enzyme label.
Method: Phage library screening was carried out according to the overall screening design described above. Three to four rounds of bead-based panning were performed to identify scFv binders to each peptide-HLA complex. For each round of panning, an aliquot of starting phage was set aside for input titering and the remaining phage was depleted three times against Dynabead M-280 streptavidin beads (Life Technologies) followed by a depletion against Streptavidin beads pre-bound with 100 μmoles of pooled negative peptide-HLA complexes. For the first round of panning, 100 μmoles of peptide-HLA complex bound to streptavidin beads was incubated with depleted phage for 2 hours at room temperature with rotation. Three five-minute washes with 0.5% BSA in 1×PBST (PBS+0.05% Tween-20) followed by three five-minute washes with 0.5% BSA in 1×PBS were utilized to remove any unbound phage to the peptide-HLA complex bound beads. To elute the bound phage from the washed beads, 1 ml 0.1M TEA was added and incubated for 10 minutes at room temperature with rotation. The eluted phage was collected from the beads and neutralized with 0.5 ml 1M Tris-HCl pH 7.5. The neutralized phage was then used to infect log growth TG-1 cells (OD₆₀₀=0.5) and after an hour of infection at 37° C., cells were plated onto 2YT media with 100 μg/ml carbenicillin and 2% glucose (2YTCG) agar plates for output titer and bacterial growth for subsequent panning rounds.
96-well and/or 384-well streptavidin coated plates (Pierce) were coated with 2 μg/ml peptide-HLA complex in HLA buffer and incubated overnight at 4° C. Plates were washed three times between each step with PBST (PBS+0.05%). The antigen coated plates were blocked with 3% BSA in PBS (blocking buffer) for 1 hour at room temperature. After washing, scFv PPEs were added to the plates and incubated at room temperature for 1 hour. Following washing, mouse anti-v5 antibody (Invitrogen) in blocking buffer was added to detect scFv and incubated at room temperature for 1 hour. After washing, HRP-goat anti-mouse antibody (Jackson ImmunoResearch) was added and incubated at room temperature for 1 hour.
The target of experiment [2] is HLA-A*01:01_… (HLA-PEPTIDE target G10), recombinant biotinylated complex (human, enzymatically biotinylated (BirA)). The experiment is described as follows: BLI, pHLA on sensor, Fab titrated, 1:1 model.
Method: Binding affinity was assessed by bio-layer interferometry (BLI) using an Octet Qke (ForteBio). Briefly, biotinylated pHLA complexes in kinetics buffer were loaded onto streptavidin sensors for 300 seconds, at concentrations which gave the optimal nm shift response (approximately 0.6 nm) for each Fab at the highest concentration used. The ligand-loaded tips were subsequently equilibrated in the kinetics buffer for 120 seconds. The ligand-loaded biosensors were then dipped for 200 seconds in the Fab solution titrated into 2-fold dilutions. […] The dissociation step in the kinetics buffer was measured for 200 seconds. Data were analyzed using the ForteBio data analysis software using a 1:1 binding model.
Experiment [3] has as its target T1, HLA-A*01:01_… (HLA-PEPTIDE target G2), recombinant biotinylated complex (human, enzymatically biotinylated (BirA)).
T1 construct: also called G2-pHLA
The experiment is described as follows: BLI (ForteBio Octet HTX), biotinylated G2-pHLA captured on streptavidin SAX biosensor, bispecific in solution, 1:2 Fit. A general note: BLI is a label-free optical method that tracks binding on a fibre tip over time.

Experiment [4] addresses T1, HLA-A*01:01_… (HLA-PEPTIDE target G2), …. The experiment is described as follows: BLI (ForteBio Octet HTX), biotinylated G2-pHLA captured on streptavidin SAX biosensor, bispecific in solution, 1:1 Fit.
From the text: The biosensors were then dipped in assay buffer for a baseline. […] The biosensors were finally dipped into wells containing assay buffer to measure the dissociation rate for another 50 seconds. Referencing was completed by having a biosensor with no immobilized ligand dipped into analyte. Kinetic data was processed with Octet™ software using a 1:1 kinetic model with errors within 10%, X² below 3, and R² above 0.9.
Experiment [5] addresses T2, HLA-A*01:01_… (G2) presented on cells (human).
T2 construct: whole, on cells; K562 transduced with HLA-A*01:01 and pulsed with peptide, or A375 transduced with a 10x peptide cassette; also called G2 on K562 or A375 cells
The experiment is described as follows: flow cytometry, A375 cells expressing the G2 peptide.
Method: Tumor cells engineered to express target peptide were harvested, washed in PBS, and stained with eBioscience Fixable Viability Dye eFluor 450 for 15 minutes at room temperature. Following another wash in PBS+1-2% FBS, cells were resuspended with the indicated molecules at varying concentrations and incubated for 1 hour at 4° C. After another wash, PE-conjugated goat anti-human IgG secondary antibody (Jackson ImmunoResearch) was added at 1:100 to 1:200 for 30 minutes at 4° C. After washing in PBS+1-2% FBS, cells were resuspended in PBS+1-2% FBS and analyzed by flow cytometry. Flow cytometric analysis was performed on the Attune NxT Flow Cytometer (ThermoFisher) using the Attune NxT Software. Data was analyzed using FlowJo.

Experiment [6] addresses T1, HLA-A*01:01_… (HLA-PEPTIDE target G2), …. The experiment is described as follows: BLI (ForteBio Octet HTX), biotinylated G2-pHLA captured on streptavidin SAX biosensor, bispecific in solution, 1:1 kinetic model.
Method: (§1) The affinity of wildtype and DSB mutants were analyzed on the ForteBio Octet HTX in 96-channel mode with biolayer interferometry (BLI) detection. […] The biosensors were then dipped in assay buffer for a baseline. […] The biosensors were finally dipped into wells containing assay buffer to measure the dissociation rate for another 50 seconds. Referencing was completed by having a biosensor with no immobilized ligand dipped into analyte. Kinetic data was processed with Octet™ software using a 1:1 kinetic model with errors within 10%, X² below 3, and R² above 0.9.
Experiment [7] shares this target. The experiment is described as follows: BLI (Octet HTX), biotinylated pHLA on SAX sensor, 1:1 model.
Method: as §1

B1: G7(1G10) scFv (scFv, V domains shown)
VH: EVQLLESGGGLVQPGGSLRLSCAASGFTFSSYAMHWVRQAPGKGLEWVSGISGSGGSTYYADSVKGRFTISRDNSKNTLYLQMNSLRAEDTAVYYCASDYGDYRGQGTLVTVSS
VL: DIQMTQSPSSLSASVGDRVTITCRASQDIRNDLGWYQQKPGKAPKLLIYAASSLQSGVPSRFSGSGSGTDFTLTISSLQPEDFATYYCQQANAFPPTFGQGTKVEIK
B1: the binding result in experiment [1] was “binds”.

B2: G10(1B07) Fab (Fab, V domains shown)
VH: QVQLVQSGAEVKKPGASVKVSCKASGYTFTSYYMHWVRQAPGQGLEWMGIIHPGGGTTSYAQKFQGRVTMTRDTSTSTVYMELSSLRSEDTAVYYCARDKVYGDGFDPWGQGTLVTVSS
VL: DIQMTQSPSSLSASVGDRVTITCRASQSISRWLAWYQQKPGKAPKLLIFDASRLQSGVPSRFSGSGSGTDFTLTISSLQPEDFATYYCQQAEAFPYTFGQGTKVEIK
notes: Fab
As to B2, in experiment [2], the Kd (as a rule, the free concentration of one partner at which half of the binding sites on the other are occupied at equilibrium, for simple one-to-one binding) was 37.5 nM; the koff (commonly a measure of how fast the partners let go of each other) was found to be 0.00615 s⁻¹; the kon (in general, the second-order rate constant of association) was 165000 M⁻¹ s⁻¹.

B3: G7(1F08) scFv (scFv, V domains shown)
VH: EVQLLQSGGGLVQPGGSLRLSCAASGFTFSSSWMHWVRQAPGKGLEWVSFISTSSGYIYYADSVKGRFTISRDNSKNTLYLQMNSLRAEDTAVYYCAKDLATVGEPYYYYGMDVWGQGTTVTVSS
VL: DIQMTQSPSSLSASVGDRVTITCQASQDISNYLNWYQQKPGKAPKLLIYSASNLRSGVPSRFSGSGSGTDFTLTISSLQPEDFATYYCQQGNTFPLTFGQGTKVEIK
Consider B3, for which the binding result in experiment [1] is given as “binds”.

B4: G7(3A09) scFv (scFv, V domains shown)
VH: QVQLVQSGAEVKKPGSSVKVSCKASGDTFNTYALSWVRQAPGQGLEWMGWMNPNSGNAGYAQKFQGRVTITADESTSTAYMELSSLRSEDTAVYYCARLWFGELHYYYYYGMDVWGQGTMVTVSS
VL: not shown
For the molecule B4, the binding result in experiment [1] is “binds”.

B5: G10(4E07) Fab (Fab, V domains shown)
VH: QVQLVQSGAEVKKPGSSVKVSCKASGYTFTGYYMHWVRQAPGQGLEWMGRISPSDGSTTYAPKFQGRVTITADESTSTAYMELSSLRSEDTAVYYCARDMGDAFDIWGQGTTVTVSS
VL: not shown
notes: Fab
As for B5, in experiment [2], the Kd turned out to be 428 nM, the koff was determined as 0.111 s⁻¹ and the kon turned out to be 477000 M⁻¹ s⁻¹.

B6: 4-G2(1H11)-10AAL hOKT3a (bispecific antibody)
chain: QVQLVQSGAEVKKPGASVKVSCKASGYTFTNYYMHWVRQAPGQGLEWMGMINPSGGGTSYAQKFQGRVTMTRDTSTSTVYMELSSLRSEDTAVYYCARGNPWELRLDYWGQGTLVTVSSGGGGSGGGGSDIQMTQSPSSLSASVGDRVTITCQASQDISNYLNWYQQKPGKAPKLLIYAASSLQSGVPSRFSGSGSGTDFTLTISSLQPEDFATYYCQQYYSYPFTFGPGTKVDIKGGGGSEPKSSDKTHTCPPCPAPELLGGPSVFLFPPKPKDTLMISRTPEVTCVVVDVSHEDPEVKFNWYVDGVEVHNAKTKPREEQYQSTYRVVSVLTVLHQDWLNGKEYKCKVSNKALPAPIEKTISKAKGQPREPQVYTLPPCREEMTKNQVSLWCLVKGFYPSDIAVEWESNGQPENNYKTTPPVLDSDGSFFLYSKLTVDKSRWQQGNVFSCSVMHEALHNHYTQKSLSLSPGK
heavy: QVQLVQSGAEVKKPGASVKVSCKASGYTFTNYYMHWVRQAPGQGLEWMGMINPSGGGTSYAQKFQGRVTMTRDTSTSTVYMELSSLRSEDTAVYYCARGNPWELRLDYWGQGTLVTVSSGGGGSGGGGSDIQMTQSPSSLSASVGDRVTITCQASQDISNYLNWYQQKPGKAPKLLIYAASSLQSGVPSRFSGSGSGTDFTLTISSLQPEDFATYYCQQYYSYPFTFGPGTKVDIKGGGGSGGGGSQVQLVQSGAEVKKPGASVKVSCKASGYTFTRYTMHWVRQAPGQGLEWMGYINPSRGYTNYNQKFKDRVTLTTDKSSSTAYMELSSLRSEDTAVYYCARYYDDHYSLDYWGQGTLVTVSSASTKGPSVFPLAPSSKSTSGGTAALGCLVKDYFPEPVTVSWNSGALTSGVHTFPAVLQSSGLYSLSSVVTVPSSSLGTQTYICNVNHKPSNTKVDKRVEPKSCDKTHTCPPCPAPELLGGPSVFLFPPKPKDTLMISRTPEVTCVVVDVSHEDPEVKFNWYVDGVEVHNAKTKPREEQYQSTYRVVSVLTVLHQDWLNGKEYKCKVSNKALPAPIEKTISKAKGQPREPQVCTLPPSREEMTKNQVSLSCAVKGFYPSDIAVEWESNGQPENNYKTTPPVLDSDGSFFLVSKLTVDKSRWQQGNVFSCSVMHEALHNRFTQKSLSLSPGK
light: DIQMTQSPSSLSASVGDRVTITCSASSSVSYMNWYQQKPGKAPKRLIYDTSKLASGVPSRFSGSGSGTDFTLTISSLQPEDFATYYCQQWSSNPFTFGQGTKLEIKRTVAAPSVFIFPPSDEQLKSGTASVVCLLNNFYPREAKVQWKVDNALQSGNSQESVTEQDSKDSTYSLSSTLTLSKADYEKHKVYACEVTHQGLSSPVTKSFNRGEC
notes: format 4 diabody; also called G2(1H11)-hOKT3a Format 4 with shortened linkers; DAB
B6: in experiment [3], the Kd stood at 301 nM, the koff worked out at 0.0746 s⁻¹ and the kon was 248000 M⁻¹ s⁻¹. In experiment [4], the Kd came out at 6.35 nM, the koff was 0.00608 s⁻¹ and the kon stood at 958000 M⁻¹ s⁻¹.

B7: 4-hOKT3-G2(1H11) (bispecific antibody, human IgG1, kappa, N297Q)
chain: not shown
heavy: QVQLVQSGAEVKKPGASVKVSCKASGYTFTNYYMHWVRQAPGQGLEWMGMINPSGGGTSYAQKFQGRVTMTRDTSTSTVYMELSSLRSEDTAVYYCARGNPWELRLDYWGQGTLVTVSSGGGGSGGGGSGGGGSGGGGSDIQMTQSPSSLSASVGDRVTITCQASQDISNYLNWYQQKPGKAPKLLIYAASSLQSGVPSRFSGSGSGTDFTLTISSLQPEDFATYYCQQYYSYPFTFGPGTKVDIKGGGGSGGGGSQVQLVQSGAEVKKPGASVKVSCKASGYTFTRYTMHWVRQAPGQGLEWMGYINPSRGYTNYNQKFKDRVTLTTDKSSSTAYMELSSLRSEDTAVYYCARYYDDHYSLDYWGQGTLVTVSSASTKGPSVFPLAPSSKSTSGGTAALGCLVKDYFPEPVTVSWNSGALTSGVHTFPAVLQSSGLYSLSSVVTVPSSSLGTQTYICNVNHKPSNTKVDKRVEPKSCDKTHTCPPCPAPELLGGPSVFLFPPKPKDTLMISRTPEVTCVVVDVSHEDPEVKFNWYVDGVEVHNAKTKPREEQYQSTYRVVSVLTVLHQDWLNGKEYKCKVSNKALPAPIEKTISKAKGQPREPQVCTLPPSREEMTKNQVSLSCAVKGFYPSDIAVEWESNGQPENNYKTTPPVLDSDGSFFLVSKLTVDKSRWQQGNVFSCSVMHEALHNRFTQKSLSLSPGK
light: DIQMTQSPSSLSASVGDRVTITCSASSSVSYMNWYQQKPGKAPKRLIYDTSKLASGVPSRFSGSGSGTDFTLTISSLQPEDFATYYCQQWSSNPFTFGQGTKLEIKRTVAAPSVFIFPPSDEQLKSGTASVVCLLNNFYPREAKVQWKVDNALQSGNSQESVTEQDSKDSTYSLSSTLTLSKADYEKHKVYACEVTHQGLSSPVTKSFNRGEC
notes: format 4; its Fc may differ; also called 4-G2(1H11)-hOKT3; Format 4 G2(1H11) without the DSB
Regarding B7, the response in experiment [5] was half-maximal at 9.8 nM (EC50). The values for the Kd in experiment [3], in experiment [7] and in experiment [4] were 1640 nM, 18 nM and 30.3 nM, respectively. The results for the koff in experiment [3], in experiment [6] and in experiment [4] were 0.324 s⁻¹, 0.00397 s⁻¹ and 0.0277 s⁻¹, respectively. Besides, the kon worked out at 198000 M⁻¹ s⁻¹ in experiment [3] and 913000 M⁻¹ s⁻¹ in experiment [4].

B8: 4-hOKT3-G2(1H11) with engineered H44/L100 disulfide bond (bispecific antibody, human IgG1, kappa, N297Q)
chain: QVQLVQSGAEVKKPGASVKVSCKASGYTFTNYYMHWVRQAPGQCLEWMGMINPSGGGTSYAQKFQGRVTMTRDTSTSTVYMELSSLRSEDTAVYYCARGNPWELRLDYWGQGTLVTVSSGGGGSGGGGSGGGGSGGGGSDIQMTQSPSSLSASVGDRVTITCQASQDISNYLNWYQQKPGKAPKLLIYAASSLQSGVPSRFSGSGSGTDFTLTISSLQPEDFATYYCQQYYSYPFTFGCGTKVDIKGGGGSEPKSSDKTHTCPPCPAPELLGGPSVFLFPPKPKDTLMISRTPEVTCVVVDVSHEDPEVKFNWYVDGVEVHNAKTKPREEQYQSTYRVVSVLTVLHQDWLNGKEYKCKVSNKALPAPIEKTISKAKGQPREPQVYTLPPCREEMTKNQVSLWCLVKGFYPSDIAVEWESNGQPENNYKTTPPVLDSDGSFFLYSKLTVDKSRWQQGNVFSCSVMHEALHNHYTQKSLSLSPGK
heavy: QVQLVQSGAEVKKPGASVKVSCKASGYTFTNYYMHWVRQAPGQCLEWMGMINPSGGGTSYAQKFQGRVTMTRDTSTSTVYMELSSLRSEDTAVYYCARGNPWELRLDYWGQGTLVTVSSGGGGSGGGGSGGGGSGGGGSDIQMTQSPSSLSASVGDRVTITCQASQDISNYLNWYQQKPGKAPKLLIYAASSLQSGVPSRFSGSGSGTDFTLTISSLQPEDFATYYCQQYYSYPFTFGCGTKVDIKGGGGSGGGGSQVQLVQSGAEVKKPGASVKVSCKASGYTFTRYTMHWVRQAPGQGLEWMGYINPSRGYTNYNQKFKDRVTLTTDKSSSTAYMELSSLRSEDTAVYYCARYYDDHYSLDYWGQGTLVTVSSASTKGPSVFPLAPSSKSTSGGTAALGCLVKDYFPEPVTVSWNSGALTSGVHTFPAVLQSSGLYSLSSVVTVPSSSLGTQTYICNVNHKPSNTKVDKRVEPKSCDKTHTCPPCPAPELLGGPSVFLFPPKPKDTLMISRTPEVTCVVVDVSHEDPEVKFNWYVDGVEVHNAKTKPREEQYQSTYRVVSVLTVLHQDWLNGKEYKCKVSNKALPAPIEKTISKAKGQPREPQVCTLPPSREEMTKNQVSLSCAVKGFYPSDIAVEWESNGQPENNYKTTPPVLDSDGSFFLVSKLTVDKSRWQQGNVFSCSVMHEALHNRFTQKSLSLSPGK
light: DIQMTQSPSSLSASVGDRVTITCSASSSVSYMNWYQQKPGKAPKRLIYDTSKLASGVPSRFSGSGSGTDFTLTISSLQPEDFATYYCQQWSSNPFTFGQGTKLEIKRTVAAPSVFIFPPSDEQLKSGTASVVCLLNNFYPREAKVQWKVDNALQSGNSQESVTEQDSKDSTYSLSSTLTLSKADYEKHKVYACEVTHQGLSSPVTKSFNRGEC
notes: also called G2(1H11)-hOKT3_DSBH44/L100 Format 4; G2 Format 4 with the DSB
With B8, in experiment [5], the half-maximal effective concentration (EC50) (as a rule, the concentration that produces a half-maximal response) was 1750 nM. The koff in experiment [6] was determined as 0.025 s⁻¹. Moreover, in experiment [7], the dissociation constant (Kd) was found to be 35.1 nM.

B9: G7(1C06) scFv (scFv, V domains shown)
VH: QVQLVQSGAEVKKPGASVKVSCKASGGTFSNYGISWVRQAPGQGLEWMGIINPGGSTSYAQKFQGRVTMTRDTSTSTVYMELSSLRSEDTAVYYCARDGYDFWSGYTSDDYWGQGTLVTVSS
VL: EIVMTQSPATLSVSPGERATLSCRASQSVSSSNLAWYQQKPGQAPRLLIYGASTRATGIPARFSGSGSGTEFTLTISSLQSEDFAVYYCHHYGRSHTFGQGTKVEIK
On to B9, for which the binding result in experiment [1] was “binds”.

B10: G7(1B04) scFv (scFv, V domains shown)
VH: QVQLVQSGAEVKKPGASVKVSCKASGYTFSNYYIHWVRQAPGQGLEWMGWLNPNSGNTGYAQRFQGRVTMTRDTSTSTVYMELSSLRSEDTAVYYCARDLMTTVVTPGDYGMDVWGQGTTVTVSS
VL: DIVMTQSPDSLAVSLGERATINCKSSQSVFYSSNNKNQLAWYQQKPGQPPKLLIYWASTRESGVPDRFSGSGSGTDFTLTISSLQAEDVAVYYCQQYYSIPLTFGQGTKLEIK
Consider B10, for which the binding result in experiment [1] was “binds”.
